Key:
Test in all cases: cell-based or functional assay
[1] = molecular target: HIV-1 CH0505TF (CH505 transmitted/founder) Env on Env-pseudotyped virus produced in 293T cells (HIV-1)
[2] = molecular target: HIV-1 CH0505TF.G458Y Env on Env-pseudotyped virus produced in 293T cells (HIV-1)
[3] = molecular target: HIV-1 CH0505TF.N280D Env on Env-pseudotyped virus produced in 293T cells (HIV-1)
[4] = molecular target: HIV-1 CH0505TF.G458Y Env on Env-pseudotyped virus produced in 293S GnTI-/- cells (Man5-enrichment) (HIV-1)
[5] = molecular target: HIV-1 CH0505TF.N280D Env on Env-pseudotyped virus produced in 293S GnTI- cells (HIV-1)
[6] = molecular target: HIV-1 CH0505TF Env on Env-pseudotyped virus produced in 293S/GnTI-/- cells (Man5-enrichment) (HIV-1)
[7] = molecular target: HIV-1 CH0505TF.S365P Env on Env-pseudotyped virus produced in 293S GnTI- cells (HIV-1)
[8] = molecular target: HIV-1 CH0505TF.S365P Env on Env-pseudotyped virus produced in 293T cells (HIV-1)
[9] = molecular target: HIV-1 Env 426c, Env-pseudotyped virus produced in 293S GnTI- cells (Man5-enriched) (HIV-1 clade C strain 426c)
[10] = molecular target: CH0505TF.gly3.461 Env, Env-pseudotyped virus produced in 293T cells (HIV-1)
[11] = molecular target: CH0505TF.gly4.G458Y Env, pseudotyped virus produced in 293S GnTI- cells (HIV-1)
[12] = molecular target: HIV-1 Env 426c.TM4 (S278R.G471S.N460D.N463D), Env-pseudotyped virus produced in 293T cells (HIV-1 clade C strain 426c)
[13] = molecular target: HIV-1 Env 426c.DM (N460D.N463D), Env-pseudotyped virus produced in 293S GnTI- cells (Man5-enriched) (HIV-1 clade C strain 426c)
[14] = molecular target: HIV-1 Env 426c.DM (N460D.N463D), Env-pseudotyped virus produced in 293T cells (HIV-1 clade C strain 426c)
[15] = molecular target: CH0505TF.gly3.276 Env, Env-pseudotyped virus produced in 293T cells (HIV-1)
[16] = molecular target: CH0505TF.gly3.197 Env, pseudotyped virus produced in 293S GnTI- cells (HIV-1)
[17] = molecular target: CH0505TF Env, pseudotyped virus produced in 293S GnTI- cells (HIV-1)
[18] = molecular target: CH0505TF.gly3.276 Env, pseudotyped virus produced in 293S GnTI- cells (HIV-1)
[19] = molecular target: HIV-1 Env 426c.TM4 (S278R.G471S.N460D.N463D), Env-pseudotyped virus produced in 293S GnTI- cells (Man5-enriched) (HIV-1 clade C strain 426c)
[20] = molecular target: CH0505TF.G458Y Env, pseudotyped virus produced in 293S GnTI- cells (HIV-1)
[21] = molecular target: HIV-1 Env 426c.TM (N276D.N460D.N463D), Env-pseudotyped virus produced in 293T cells (HIV-1 clade C strain 426c)
[22] = molecular target: CH0505TF.gly4 Env, Env-pseudotyped virus produced in 293T cells (HIV-1)
[23] = molecular target: HIV-1 Env 426c, Env-pseudotyped virus produced in 293T cells (HIV-1 clade C strain 426c)
[24] = molecular target: CH0505.w4.3 Env, Env-pseudotyped virus produced in 293T cells (HIV-1)
[25] = molecular target: CH0505TF.G458Y Env, Env-pseudotyped virus produced in 293T cells (HIV-1)
[26] = molecular target: CH0505TF Env, Env-pseudotyped virus produced in 293T cells (HIV-1)
[27] = molecular target: HIV-1 Env 426c.TM (N276D.N460D.N463D), Env-pseudotyped virus produced in 293S GnTI- cells (Man5-enriched) (HIV-1 clade C strain 426c)
[28] = molecular target: HIV-1 Env 426c.SM (N276D), Env-pseudotyped virus produced in 293T cells (HIV-1 clade C strain 426c)
[29] = molecular target: CH0505TF.gly4.G458Y Env, pseudotyped virus produced in 293T cells (HIV-1)
[30] = molecular target: CH0505.w4.3 Env, pseudotyped virus produced in 293S GnTI- cells (HIV-1)
[31] = molecular target: CH0505TF.gly3.197 Env, Env-pseudotyped virus produced in 293T cells (HIV-1)
[32] = molecular target: CH0505TF.gly4 Env, pseudotyped virus produced in 293S GnTI- cells (HIV-1)
[33] = molecular target: HIV-1 Env 426c.SM (N276D), Env-pseudotyped virus produced in 293S GnTI- cells (Man5-enriched) (HIV-1 clade C strain 426c)
[34] = molecular target: CH0505TF.gly3.461 Env, pseudotyped virus produced in 293S GnTI- cells (HIV-1)

## CH235.12 (antibody)
[1]
  IC50 (µg/ml) in TZM-bl: 0.04 µg/mL
[2]
  IC50 (µg/ml) in TZM-bl: 0.01 µg/mL
[3]
  IC50 (µg/ml) in TZM-bl: 0.06 µg/mL
[4]
  IC50 (µg/ml) in TZM-bl: < 0.02 µg/mL
[5]
  IC50 (µg/ml) in TZM-bl: 0.02 µg/mL
[6]
  IC50 (µg/ml) in TZM-bl: 0.02 µg/mL
[7]
  IC50 (µg/ml) in TZM-bl: 0.01 µg/mL
[8]
  IC50 (µg/ml) in TZM-bl: 0.03 µg/mL
[9]
  IC50 (µg/ml) in TZM-bl: > 25 µg/mL
[10]
  IC50 (µg/ml) in TZM-bl: 0.003 µg/mL
[11]
  IC50 (µg/ml) in TZM-bl cells: < 0.005 µg/mL
[12]
  IC50 (µg/ml) in TZM-bl: 0.1 µg/mL
[13]
  IC50 (µg/ml) in TZM-bl: > 25 µg/mL
[14]
  IC50 (µg/ml) in TZM-bl: 0.66 µg/mL
[15]
  IC50 (µg/ml) in TZM-bl: 0.001 µg/mL
[16]
  IC50 (µg/ml) in TZM-bl: 0.003 µg/mL
[17]
  IC50 (µg/ml) in TZM-bl: 0.015 µg/mL
[18]
  IC50 (µg/ml) in TZM-bl: 0.005 µg/mL
[19]
  IC50 (µg/ml) in TZM-bl: 24.2 µg/mL
[20]
  IC50 (µg/ml) in TZM-bl: 0.003 µg/mL
[21]
  IC50 (µg/ml) in TZM-bl: 0.09 µg/mL
[22]
  IC50 (µg/ml) in TZM-bl: 0.001 µg/mL
[23]
  IC50 (µg/ml) in TZM-bl: 8.95 µg/mL
[24]
  IC50 (µg/ml) in TZM-bl: 0.04 µg/mL
[25]
  IC50 (µg/ml) in TZM-bl: 0.014 µg/mL
[26]
  IC50 (µg/ml) in TZM-bl: 0.04 µg/mL
[27]
  IC50 (µg/ml) in TZM-bl: 0.07 µg/mL
[28]
  IC50 (µg/ml) in TZM-bl: 1.08 µg/mL
[29]
  IC50 (µg/ml) in TZM-bl cells: < 0.005 µg/mL
[30]
  IC50 (µg/ml) in TZM-bl: 0.01 µg/mL
[31]
  IC50 (µg/ml) in TZM-bl: 0.008 µg/mL
[32]
  IC50 (µg/ml) in TZM-bl: 0.001 µg/mL
[33]
  IC50 (µg/ml) in TZM-bl: 0.26 µg/mL
[34]
  IC50 (µg/ml) in TZM-bl: 0.002 µg/mL

— patent publication US20230140293A1
